According to patent US20090202547A1 (FIBRON, published 2009):
Each block holds one binder with its values, some of them ahead of it.

Key:
[1] = target: T1, FGFR3 (wild type) on cells (human, UniProt P22607 23-806); assay: cell-based or functional assay
FR3exFc [2] = target: T2, FR3exFc (human); assay: BIAcore, Fab-dHLX-MH miniantibody; Fab-dHLX-MH miniantibody (dimer)
T2 construct: also called FGFR3/Fc; FR3/Fc

FR1exFc [3] = target: T3, FR1exFc (UniProt P11362 22-376, limits assumed); assay: ELISA, FGFR/Fc captured on anti-human Fc coated plate, detection with anti-human Fab-HRP
T3 construct: extracellular domain; also called FGFR1/Fc; FR1/Fc; not shown: Fc part; the construct of FR1exFc is not described
T3 sequence (looked up): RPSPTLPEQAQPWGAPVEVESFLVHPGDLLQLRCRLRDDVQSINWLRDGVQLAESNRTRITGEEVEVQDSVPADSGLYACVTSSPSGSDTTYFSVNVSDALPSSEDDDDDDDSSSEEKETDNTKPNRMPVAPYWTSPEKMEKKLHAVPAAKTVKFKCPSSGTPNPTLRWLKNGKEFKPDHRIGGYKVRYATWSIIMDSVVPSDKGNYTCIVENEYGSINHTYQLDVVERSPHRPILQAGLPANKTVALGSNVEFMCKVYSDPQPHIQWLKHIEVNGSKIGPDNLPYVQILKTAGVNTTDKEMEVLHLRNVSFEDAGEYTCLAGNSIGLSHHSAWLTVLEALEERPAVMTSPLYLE

[4] = target: T1, FGFR3 (wild type) on cells; assay: FACS
FR3exFc [5] = target: T2, FR3exFc; assay: BIACORE
Protocol: (§1) The affinity measurements were performed by BIACORE® analysis according to the standard procedure recommended by the supplier (Pharmacia). The anti-Fc antibody was coupled via the EDC/NHS chemistry to the chip and subsequently FGFR3 was captured. The Fabs of the invention were then bound to this surface.

[6] = target: T1, FGFR3 (wild type) on cells; assay: cell-based or functional assay; remark: listed apart in the source
[7] = target: T1, FGFR3 (wild type) on cells; assay: cell-based or functional assay; remark: listed apart in the source
[8] = target: T1, FGFR3 (wild type) on cells; assay: indirect FACS-Scatchard
FR3exFc [9] = target: T2, FR3exFc; assay: BIACORE, FGFR3 captured on an anti-Fc chip
Protocol: as §1

FR3exFc [10] = target: T2, FR3exFc; assay: BIACORE, FGFR3 captured on an anti-Fc chip; remark: listed apart in the source
Protocol: as §1

FR3exFc [11] = target: T2, FR3exFc; assay: BIAcore; number in parentheses taken as the monomeric Fab; monomeric Fab, not miniantibody
FR3exFc [12] = target: T2, FR3exFc; assay: BIAcore, Fab-dHLX-MH miniantibody
[13] = target: T1, FGFR3 (wild type) on cells; assay: indirect FACS-Scatchard; indirect FACS-Scatchard, Table 5 (Table 1C gives 1.1 nM)
hFR3^D2Fc = target: T4, hFR3^D2Fc (human, UniProt P22607 143-250); assay: ELISA, Fc fusion anchored on an anti-human Fc coated plate, bound Fab detected with HRP anti-human Fab
T4 construct: Only domain 2 of the entry stood in the assay; also called product of pChFR3^D2Fc; not shown: human Fc
T4 sequence: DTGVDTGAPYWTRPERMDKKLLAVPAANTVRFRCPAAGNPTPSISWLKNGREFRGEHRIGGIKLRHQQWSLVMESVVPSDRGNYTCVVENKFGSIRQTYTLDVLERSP
From the text: Constructs comprising cDNAs that code for segments of the extracellular domain of FGFR3 were generated (FIG. 10). D2 comprises Ig domain 2, D2-3 comprises Ig domains 2 and 3, and D1-3 comprises Ig domains 1, 2 and 3. These constructs include pChFR3^D2Fc that codes for Ig-like domain 2 of FGFR3 and pChFR3^{D2,3}Fc that codes for domain 2 and 3, both as human Fc fusions. The corresponding chimeric proteins, as well as the control hFR3exFc (containing domains 1, 2 and 3) were anchored to an ELISA plate coated with a human Fc antibody. A panel of 8 best Fabs, MSPRO2, 11, 12, 21, 24, 26, 28 and 29, were added, and bound Fab was determined with HRP-α human Fab (FIG. 11). […] Both bind to the Ig like domain 2 while the others require domain 3 for binding. It was then tested whether or not Fabs that belong to the second group would distinguish the FGFR3IIIc isoform from the FGFRIIIb from. FDCP-FR3IIIb or FDCP-FR3IIIc cells were incubated in the presence of 1.25 ng/ml FGF9 with increasing doses of either MSPRO12 or MSPRO29. Ly6.3 was included as control. After 2 days in culture, cell proliferation was measured with the XTT reagent. Clearly, MSPRO29 (open triangle) was completely ineffective against the IIIb isoform (FIG. 12).

FR3exFc [14] = target: T2, FR3exFc; assay: BIAcore; number in parentheses taken as the monomeric Fab; monomeric Fab, value in parentheses of Table 1E (Tables 1C and 5 give 9 nM)
FR1exFc [15] = target: T3, FR1exFc; assay: Affinity to FGFR1 (BIACORE and/or FACS)
FR3exFc [16] = target: T2, FR3exFc; assay: ELISA, FGFR3/Fc anchored on anti-human Fc coated wells, about 5 µg Fab per well (labelled with cold iodine at 0.04 mM NaI), detection with anti-human Fab; parallel wells without FR3/Fc
Protocol: To determine the effect of iodination on Fab activity, 50 μg of MSPRO29 was first labeled with cold iodine using Pierce IodoGen coated tubes. The process was carried out either without iodine, with 0.04 mM NaI (low I) or with 1 mM NaI (high I). MSPRO29 was then purified through a SEPHADEX® G-50 column. The ability of the modified Fab to bind FGFR3 was determined by ELISA. MAXISORP® wells were coated with anti-human Fc. FGFR3/Fc was then anchored to the wells. In parallel, a similar set of wells was left in blocking buffer only (no FR3/Fc, hatched bars). The unmodified (no I) or the modified MSPRO29 (low or high, 2 G-50 fractions each, 1 and 2) were added at approximately 5 μg/well and binding was measured with anti-human Fab. Fresh MSPRO29 and buffer alone were included as controls (FIG. 14: FGFR3/Fc, checkered bars; no FGFR3/Fc, hatched bars). MS-PRO29 was labeled with 1 mCi ¹²⁵I. The specific activity of the Fab was 17 μCi/μg.

T2 sequence (chain, as listed by the source limits assumed): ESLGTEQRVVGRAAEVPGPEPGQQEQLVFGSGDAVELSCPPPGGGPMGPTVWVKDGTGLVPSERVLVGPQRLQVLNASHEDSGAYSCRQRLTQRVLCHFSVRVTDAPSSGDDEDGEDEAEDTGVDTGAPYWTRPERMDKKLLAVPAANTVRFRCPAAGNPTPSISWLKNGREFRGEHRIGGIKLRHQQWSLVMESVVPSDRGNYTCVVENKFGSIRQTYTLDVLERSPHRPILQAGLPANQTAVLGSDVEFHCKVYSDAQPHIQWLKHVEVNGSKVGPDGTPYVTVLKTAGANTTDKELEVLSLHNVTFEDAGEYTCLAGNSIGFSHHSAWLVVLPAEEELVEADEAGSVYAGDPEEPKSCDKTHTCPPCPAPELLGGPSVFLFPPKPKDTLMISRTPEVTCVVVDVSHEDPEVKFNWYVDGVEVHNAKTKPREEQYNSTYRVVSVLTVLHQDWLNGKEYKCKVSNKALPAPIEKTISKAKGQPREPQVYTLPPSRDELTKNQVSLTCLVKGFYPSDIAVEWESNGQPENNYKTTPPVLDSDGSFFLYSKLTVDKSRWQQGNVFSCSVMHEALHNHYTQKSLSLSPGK
T1 sequence (P22607 23-806 limits assumed): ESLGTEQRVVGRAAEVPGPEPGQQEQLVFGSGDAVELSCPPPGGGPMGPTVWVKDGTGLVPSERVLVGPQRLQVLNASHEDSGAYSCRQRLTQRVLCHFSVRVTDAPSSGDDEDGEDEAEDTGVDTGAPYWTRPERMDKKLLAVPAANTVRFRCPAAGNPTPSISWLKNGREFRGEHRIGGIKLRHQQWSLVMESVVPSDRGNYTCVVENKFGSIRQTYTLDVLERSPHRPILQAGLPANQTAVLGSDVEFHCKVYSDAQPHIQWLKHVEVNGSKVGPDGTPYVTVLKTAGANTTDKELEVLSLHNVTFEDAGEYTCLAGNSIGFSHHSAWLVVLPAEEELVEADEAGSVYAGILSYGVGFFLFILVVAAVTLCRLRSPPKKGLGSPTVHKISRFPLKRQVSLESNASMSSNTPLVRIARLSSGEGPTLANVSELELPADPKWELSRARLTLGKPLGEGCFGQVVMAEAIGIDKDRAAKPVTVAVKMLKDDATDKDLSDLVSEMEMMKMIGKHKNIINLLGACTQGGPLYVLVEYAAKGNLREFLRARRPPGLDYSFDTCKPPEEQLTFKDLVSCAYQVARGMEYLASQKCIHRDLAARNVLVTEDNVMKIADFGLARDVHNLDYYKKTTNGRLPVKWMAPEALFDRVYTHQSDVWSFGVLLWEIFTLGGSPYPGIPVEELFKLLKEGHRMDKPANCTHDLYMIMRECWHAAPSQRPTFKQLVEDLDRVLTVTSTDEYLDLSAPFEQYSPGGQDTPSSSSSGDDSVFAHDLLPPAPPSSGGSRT

B1: MS-Pro-2-dHLX-MH (Fab, V domains shown)
VH: QVQLVQSGAEVKKPGASVKVSCKASGYTFTSYYMHWVRQAPGQGLEWMGWINPNSGGTNYAQKFQGRVTMTRDTSISTAYMELSSLRSEDTAVYYCARDFLGYEFDYWGQGTLVTVSS
VL: DIELTQPPSVSVAPGQTARISCSGDALGDKYASWYQQKPGQAPVLVIYDDSDRPSGIPERFSGSNSGNTATLTISGTQAEDEADYYCQSYDYSADYVFGGGTKLTVLG
notes: Fab mini-antibody format Fab-dHLX-MH, a dimer of the Fab monomer made as a fusion protein; also called MSPRO2 dimeric dHLX format; Fab-dHLX
IC50, FDCP-FGFR3 proliferation assay with FGF9, dimeric dHLX format [1]: 61 nM | Kd (FR3exFc [2]): 4.3 nM | binding result (FR1exFc [3]): no binding

B4: MS-Pro-21-dHLX-MH (Fab, V domains shown)
VH: QVQLVQSGAEVKKPGSSVKVSCKASGGTFSSYAISWVRQAPGQGLEWMGGIIPIFGTANYAQKFQGRVTITADESTSTAYMELSSLRSEDTAVYYCARDNWFKPFSDVWGQGTLVTVSS
VL: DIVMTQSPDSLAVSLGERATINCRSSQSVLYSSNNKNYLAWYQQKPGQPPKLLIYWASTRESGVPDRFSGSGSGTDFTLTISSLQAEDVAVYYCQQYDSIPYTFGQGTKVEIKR
notes: Fab mini-antibody format Fab-dHLX-MH, a dimer of the Fab monomer; also called MSPRO21 dimeric dHLX format; Fab-dHLX
IC50, FDCP-FGFR3 proliferation assay with FGF9, dimeric dHLX format [1]: 20 nM | Kd (FR3exFc [2]): 2.2 nM

B5: MSPRO21 (Fab, V domains shown)
VH: B4 VH
VL: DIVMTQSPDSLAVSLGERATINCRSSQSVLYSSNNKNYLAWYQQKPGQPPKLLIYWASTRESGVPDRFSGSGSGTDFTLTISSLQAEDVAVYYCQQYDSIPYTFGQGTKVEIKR
Kd [4]: 1.1 nM | koff (FR3exFc [5]): 0.0036 s⁻¹ | IC50 FR3 (FGF9), FDCP-FGFR3 proliferation assay [7]: 50 nM | IC50, FDCP-FGFR3 proliferation assay with FGF9, monomeric Fab (in parentheses) [1]: 50 nM | Kd (FR3exFc [9]): 9 nM | Kd (FR3exFc [10]): 9 nM | Kd [13]: 0.6 nM | binding result (hFR3^D2Fc): no binding | Kd (FR3exFc [14]): 4.1 nM

B6: MSPRO29 (Fab, V domains shown)
VH: QVQLVQSGAEVKKPGASVKVSCKASGYTFTSYYMHWVRQAPGQGLEWMGWINPNSGGTNYAQKFQGRVTMTRDTSISTAYMELSSLRSEDTAVYYCARTWQYSYFYYLDGGYYFDIWGQGTLVTVSS
VL: DIVLTQSPATLSLSPGERATLSCRASQSVSSSYLAWYQQKPGQAPRLLIYGASSRATGVPARFSGSGSGTDFTLTISSLEPEDFATYYCQQTNNAPVTFGQGTKVEIKR
Kd [4]: < 1 nM | koff (FR3exFc [5]): 0.0014 s⁻¹ | amount of Fab that inhibits FGFR3 activation (JNK signaling) in RCJ-FR3 cells [6]: < 5 µg | IC50 FR3 (FGF9), FDCP-FGFR3 proliferation assay [7]: 20 nM | Kd [8]: 0.4 nM | Kd (FR1exFc [15]): 29 nM | Kd (FR3exFc [9]): 6 nM | Kd (FR3exFc [10]): 6 nM | binding result (hFR3^D2Fc): no binding

B7: iodinated MSPRO29 (Fab, V domains shown)
VH: B6 VH
VL: B6 VL
modifications: iodinated with IodoGen (cold NaI at 0.04 mM or 1 mM, or 125I); sites not stated
notes: MSPRO29 Fab after iodination; which preparation (low I, high I, 125I) is told in each row; also called modified MSPRO29 (low I; high I)
binding result (FR3exFc [16]): binds

Further lines, results first:

Kd [4]: 43 nM | koff (FR3exFc [5]): 0.02 s⁻¹ | IC50 of inhibition of FDCP-FR3 proliferation with FGF9 (XTT) [6]: ~1 µg/mL | IC50 FR3 (FGF9), FDCP-FGFR3 proliferation assay [7]: 360 nM | IC50, FDCP-FGFR3 proliferation assay with FGF9, monomeric Fab (in parentheses) [1]: 360 nM | Kd [8]: 43 nM | Kd (FR3exFc [9]): 37 nM | Kd (FR3exFc [10]): 37 nM | Kd (FR3exFc [11]): 37 nM
B2: MSPRO2 (Fab, V domains shown)
VH: B1 VH
VL: B1 VL

IC50, FDCP-FGFR3 proliferation assay with FGF9, dimeric dHLX format [1]: 26 nM | Kd (FR3exFc [12]): 1.2 nM | binding result (FR1exFc [3]): no binding
B3: MS-Pro-12-dHLX-MH (Fab, V domains shown)
VH: QVQLKESGPALVKPTQTLTLTCTFSGFSLSTSGVGVGWIRQPPGKALEWLALIDWDDDKYYSTSLKTRLTISKDTSKNQVVLTMTNMDPVDTATYYCARYHSWYEMGYYGSTVGYMFDYWGQGTLVTVSS
VL: DIELTQPPSVSVAPGQTARISCSGDALGDKYASWYQQKPGQAPVLVIYDDSDRPSGIPERFSGSNSGNTATLTISGTQAEDEADYYCQSYDFDFAVFGGGTKLTVLG
notes: Fab mini-antibody format Fab-dHLX-MH, a dimer of the Fab monomer; also called MSPRO12 dimeric dHLX format; Fab-dHLX
